# Experimental data from patent US20170260272A1 (Novartis, published 2017).
# Columns and labels:
# [1] = target: T1, APP-Avi-soluble human LOX-1(61-273) (human, UniProt P78380 61-273); test: SET, IgG vs soluble human LOX-1
# Experimental: (§1) Affinity determination for anti-LOX-1 IgGs using Solution Equilibrium Titration (SET) was basically performed as described in the literature (Friguet et al., 1985 J Immunol Methods 77: 305-319). The assays were performed in a 96-well polypropylene plate (Thermo Scientific, Catalog no. AB-1127) using a constant concentration of LOX-1 antibody mixed with different concentrations of non-biotinylated human or cynomolgus monkey LOX-1 protein and incubated at 22° C. for 14 hours with constant shaking (300 rpm).
# (§2) On a pre-blocked MSD plate (Meso Scale Discovery, catalog no. L21SA) biotinylated human or cynomolgus monkey soluble LOX-1 protein was immobilized and washed afterwards. The equilibrium binding reactions were then applied to the MSD plate with immobilized LOX-1 and incubated for 30 min. The unbound material was removed by washing the plate, and the captured antibody was detected by adding Sulfo-tagged goat anti-human IgG (Meso Scale Discovery, catalog no. R3AJ-1). After incubation and washing 1×MSD read buffer T(Meso Scale Discovery, catalog no. R92TC-2) was added and the plate was developed using a Sector Imager 6000 (Meso Scale Discovery). The data were transferred to Excel for analysis and plotted using GraphPad Prism v5. The KD values were determined by fitting the data to the following equation: […]
# [2] = target: T2, APP-Avi-soluble cynomolgus monkey LOX-1(61-273) (cynomolgus monkey); test: SET, IgG vs soluble cynomolgus LOX-1
# T2 construct: Non-biotinylated as titrated antigen in SET, biotinylated for capture on the plate; also called cyno sLOX-1; cynomolgus monkey soluble LOX-1
# Experimental: as §1, §2
# [3] = target: T3, human LOX-1 (full-length, on cells) (human, UniProt P78380 1-273); test: flow cytometry: DiI-oxLDL binding to human LOX-1 transfected HEK293 cells
# T3 construct: also called huLOX-1/HEK293 cells; human LOX-1 transfected HEK293 cells
# Experimental: The huLOX-1/HEK293 cells were resuspended at 1×10⁶ cells/mL and seeded 50 μL per well into a 96-well V-bottom plate (5×10⁴ cells per well). LOX-1 or irrelevant control antibodies in assay medium (DMEM+10% FBS) were then added to the cells. Typical final antibody concentrations ranged from 0.006 μg/mL to 20 μg/mL. The cells were incubated at 37° C. for 1 hour, then washed twice with warm HBSS. Dil-oxLDL (human dil-labeled “High Oxidized” LDL, Kalen Biomedical, catalog number 770262-9; Dil is 1,1′-dioctadecyl-3,3,3′,3′-tetramethylindocarbocyanine perchlorate) in 50 ul assay medium was then added to a final concentration 30 to 100 μg/mL. The cells were then incubated at 37° C. for 2 hours, and then washed twice with FACS buffer (2% FBS in PBS). Cells were then analyzed for intensity of Di-I fluorescence by flow cytometry, as depicted in FIGS. 2A-2B and Table 3.
# [4] = target: T1, APP-Avi-soluble human LOX-1(61-273); test: competition ELISA: oxLDL binding to plate-bound biotinylated human sLOX-1
# Experimental: NeutrAvidin 384 well plates were coated with 2.5 μg/ml biotinylated LOX-1 diluted in PBS. After blocking with 25% Block Ace (AbD Serotec, Cat#BUF029) in PBS, purified Fabs or IgGs diluted in PBS/1% BSA were added. Subsequently OxLDL (copper-sulfate oxidized LDL, Kalen Biomedical #770202) or MDA-LDL (Academy Biomedical, #20P-UMD-L102) ligand diluted in PBS/1% BSA were allowed to bind to coated LOX-1. Secondary antibody (HRP conjugated sheep anti ApoB IgG; The Binding Site) diluted 1:1,000 in PBS/1% BSA was added followed by addition of TMB substrate (Thermo Scientific). After 10 minutes 1M H2SO4 was added and absorbance was determined at 450 nm. During early screenings, Fab fragments were also tested in this oxLDL binding assay using Fab-containing crude E. coli lysates.
# The ability of LOX-1 antibodies to inhibit oxLDL binding to LOX-1 protein was determined using the method described in Example 4. In addition to “high binding OxLDL” from Kalen Biomedical (catalog number 770212-7), which is generated by copper sulfate mediated oxidation of LDL, two other forms of modified LDL were tested in this assay: malondialdehyde modified LDL (Academy Bio-Medical Co. catalog number 20P-MD-L105) and hypochlorite modified LDL. Hypochlorite modified LDL was prepared according to the following procedure. Human LDL (Kalen Biomedical catalog number 770200-4) was diluted with PBS to a final concentration of 0.25 mg/mL. Sodium hypochlorite (NaOCI, JT Baker catalog number 9416-01) was then added to 0.1 mM final concentration. The solution was incubated at room temperate for 4 hours, then quenched by adding L-methionine to a final concentration of reaction by adding 5 μl of 100 mM Mehionine per 200 μl total volume.
# [5] = target: T3, human LOX-1 (full-length, on cells); test: cell-based or functional assay
# T2 sequence (chain, as listed by the source limits assumed): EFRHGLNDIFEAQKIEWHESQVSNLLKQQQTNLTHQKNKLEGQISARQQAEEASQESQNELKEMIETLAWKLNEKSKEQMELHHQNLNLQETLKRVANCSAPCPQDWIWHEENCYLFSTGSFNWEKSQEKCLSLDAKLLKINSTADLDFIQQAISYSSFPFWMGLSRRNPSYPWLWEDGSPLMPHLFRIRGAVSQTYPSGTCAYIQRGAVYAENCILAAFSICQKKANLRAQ
Binder,Kd [1] [nM],Kd [2] [nM],IC50 [3] [nM],IC50 [4] [nM],"Inhibition of ROS generation (IC50, nM) [5] [nM]"
"MOR022025 (antibody, human IgG1, lambda, L234A L235A, V domains shown, Human IgG1f LALA; also called MOR20225; MOR020225) VH: QVQLLESGGGLVQPGGSLRLSCAASGFTFSDYALHWVRQAPGKGLEWVSVISYQGGFIYYADSVKGRFTISRDNSKNTLYLQMNSLRAEDTAVYYCARSPGLTSYHDSWGQGTLVTVSS VL: QSVLTQPPSVSGAPGQRVTISCSGSSSNIGSNYVSWYQQLPGTAPKLLIHSTSHRPSGVPDRFSGSKSGTSASLAITGLQAEDEADYYCQSWDYESERVVFGGGTKLTVLG",0.0003,0.0007,1,11,4.6
"MOR22028 (antibody, human IgG1, lambda, L234A L235A, V domains shown, Human IgG1f LALA; also called MOR022028; MOR20228) VH: QVQLLESGGGLVQPGGSLRLSCAASGFTFSDYALHWVRQAPGKGLEWVSVISYAGGFKFYADSVKGRFTISRDNSKNTLYLQMNSLRAEDTAVYYCARSPGLTSYHDSWGQGTLVTVSS VL: QSVLTQPPSVSGAPGQRVTISCSGSSSNIGSNYVSWYQQLPGTAPKLLIHSSSHRPSGVPDRFSGSKSGTSASLAITGLQAEDEADYYCQSWDYESERVVFGGGTKLTVLG",0.0006,0.0005,0.7,9,3.5
"MOR22029 (antibody, human IgG1, lambda, L234A L235A, Human IgG1f LALA; also called MOR022029; MOR20229) heavy: not shown light: QSALTQPASVSGSPGQSITISCTGTSSDVGYINYVNWYQQHPGKAPKLMIYEVSNRPSGVSNRFSGSKSGNTASLTISGLQAEDEADYYCASWDWYDNVVFGGGTKLTVLGQPKAAPSVTLFPPSSEELQANKATLVCLISDFYPGAVTVAWKADSSPVKAGVETTTPSKQSNNKYAASSYLSLTPEQWKSHRSYSCQVTHEGSTVEKTVAPTECS",0.01,0.007,0.4,4,2.2
"MOR22030 (antibody, human IgG1, lambda, L234A L235A, Human IgG1f LALA; also called MOR022030; MOR20230) heavy: not shown light: QSALTQPASVSGSPGQSITISCTGTSSDVGYINYVNWYQQHPGKAPKLMIYEVSNRPSGVSNRFSGSKSGNTASLTISGLQAEDEADYYCASWDWYDNVVFGGGTKLTVLGQPKAAPSVTLFPPSSEELQANKATLVCLISDFYPGAVTVAWKADSSPVKAGVETTTPSKQSNNKYAASSYLSLTPEQWKSHRSYSCQVTHEGSTVEKTVAPTECS",0.004,0.007,0.5,6,2.5
"MOR22031 (antibody, human IgG1, kappa, L234A L235A, V domains shown, Human IgG1f LALA; also called MOR022031; MOR20231) VH: QVQLVQSGAEVKKPGSSVKVSCKASGGTFSDYAISWVRQAPGQGLEWMGGIMPISGAPYYAQKFQGRVTITADESTSTAYMELSSLRSEDTAVYYCARDSSTSYYYYFDYWGQGTLVTVSS VL: DIQMTQSPSSLSASVGDRVTITCRASQDISSWLAWYQQKPGKAPKLLIYQASNLQSGVPSRFSGSGSGTDFTLTISSLQPEDFATYYCQQIDHTPFTFGQGTKVEIKR",0.003,0.004,0.8,4,1.9
"MOR22034 (antibody, human IgG1, kappa, L234A L235A, V domains shown, Human IgG1f LALA; also called MOR022034; MOR20234) VH: QVQLVQSGAEVKKPGSSVKVSCKASGGTFSDYAISWVRQAPGQGLEWMGGIVPIVGTANYAQKFQGRVTITADESTSTAYMELSSLRSEDTAVYYCARDSSTSYYYYFDYWGQGTLVTVSS VL: DIQMTQSPSSLSASVGDRVTITCRASQDISSWLAWYQQKPGKAPKLLIYQASNLQSGVPSRFSGSGSGTDFTLTISSLQPEDFATYYCQQMWQFPITFGQGTKVEIKR",0.005,0.005,0.6,10,1.6
"MOR020159 (antibody, human IgG1, kappa, L234A L235A, V domains shown, also called MOR20159) VH: QVQLVQSGAEVKKPGSSVKVSCKASGGTFSDYAISWVRQAPGQGLEWMGGIVPIVGTANYAQKFQGRVTITADESTSTAYMELSSLRSEDTAVYYCARDSSTSYYYYFDYWGQGTLVTVSS VL: DIQMTQSPSSLSASVGDRVTITCRASQDINSWLAWYQQKPGKAPKLLIYQASNLQSGVPSRFSGSGSGTDFTLTISSLQPEDFATYYCQQIDHTPFTFGQGTKVEIKR",0.56,,,5,
"MOR020052 (antibody, human IgG1, lambda, L234A L235A, V domains shown, also called MOR20052) VH: QVQLVQSGAEVKKPGSSVKVSCKASGGTFSDYAISWVRQAPGQGLEWMGGIIPGFGQANYAQKFQGRVTITADESTSTAYMELSSLRSEDTAVYYCAREPSPLYGPYSDYVMDPWGQGTLVTVSS VL: DIALTQPASVSGSPGQSITISCTGTSSDVGYFNFVSWYQQHPGKAPKLMIYDVSNRPSGVSNRFSGSKSGNTASLTISGLQAEDEADYYCASYGWDSSWVFGGGTKLTVLG",0.5,,,12,
"MOR020133 (antibody, human IgG1, lambda, L234A L235A, V domains shown, also called MOR20133) VH: QVQLVQSGAEVKKPGESLKISCKGSGYSFTNYWIAWVRQMPGKGLEWMGRIFPGDSTTTYSPSFQGQVTISADKSISTAYLQWSSLKASDTAMYYCARGKRGATHPTQYEGWEVYGFDPWGQGTLVTVSS VL: DIELTQPPSVSVSPGQTASITCSGDALGGKYASWYQQKPGQAPVLVIYDDNKRPSGIPERFSGSNSGNTATLTISGTQAEDEADYYCQSWAFYSGVFGGGTKLTVLG",0.144,,,6,
"MOR020148 (antibody, human IgG1, lambda, L234A L235A, V domains shown, also called MOR20148) VH: QVQLLESGGGLVQSGGSLRLSCAASGFTFRSGAAMHWVRQAPGKGLEWVSGISSFSSSTDYADSVKGRFTISRDNSKNTLYLQMNSLRAEDTAVYYCARNFKYAMDYWGQGTLVTVSS VL: DIALTQPASVSGSPGQSITISCTGTSSDVGSINYVSWYQQHPGKAPKMIYAVSYRPSGVSNRFSGSKSGNTASLTISGLQAEDEADYYCQVWDWRSDSRVFGGGTKLTVLG",6.5,,,9,
"MOR020152 (antibody, human IgG1, lambda, L234A L235A, V domains shown, also called MOR20152) VH: QVQLVQSGAEVKKPGSSVKVSCKASGGTFSSYAISWVRQAPGQGLEWMGRIIPIFGGANYAQKFQGRVTITADESTSTAYMELSSLRSEDTAVYYCARDPLYRSDYYYHWFDFWGQGTLVTVSS VL: DIALTQPASVSGSPGQSITISCTGTSSDVGNFNYVSWYQQHPGKAPKLMIYGVNNRPSGVSNRFSGSKSGNTASLTISGLQAEDEADYYCAAYGWALDEVVFGGGTKLTVLG",0.0014,,,5,
